# Key:
# [1] = biological target: T1, CD47 on human cells (red blood cells from healthy human donors; BxPC3; ZR-75-1) (human, UniProt Q08722 19-323); assay: cell-based or functional assay
# [2] = biological target: T2, Human CD47 Protein, Fc Tag (HPLC verified; Acro, cat:CD7-H5256-100ug) (human, UniProt Q08722 19-139); assay: ELISA, plate coated with human CD47 Fc Tag protein, anti-SCACD3 detection
# T2 construct: Bought Fc-tagged CD47 coated on the ELISA plate; not shown: Fc tag
# [3] = biological target: T1, CD47 on human cells (red blood cells …); assay: flow cytometry, JY102-Alexa Fluor 488 at 10 ug/ml, % stained BxPC3 cells against % stained RBCs
# Procedure: Again, RBC cells from healthy human donors or cultured BxPC3 cells were collected and resuspended to a concentration of approximately 5×10⁶ cells/ml in ice cold PBS, 3% BSA. 100 μl of cell suspension was used for each binding reaction and incubated with indicated doses of JY102-Alexa Fluor 488 for at least 30 min at room temperature (or 4° C. for the assay in panel C) in the dark. Then cells were washed 3 times by centrifugation at 400 g for 5 min and resuspended in ice cold PBS, 3% BSA. Each sample was subjected to flow cytometry analysis.
# T1 sequence (Q08722 19-323): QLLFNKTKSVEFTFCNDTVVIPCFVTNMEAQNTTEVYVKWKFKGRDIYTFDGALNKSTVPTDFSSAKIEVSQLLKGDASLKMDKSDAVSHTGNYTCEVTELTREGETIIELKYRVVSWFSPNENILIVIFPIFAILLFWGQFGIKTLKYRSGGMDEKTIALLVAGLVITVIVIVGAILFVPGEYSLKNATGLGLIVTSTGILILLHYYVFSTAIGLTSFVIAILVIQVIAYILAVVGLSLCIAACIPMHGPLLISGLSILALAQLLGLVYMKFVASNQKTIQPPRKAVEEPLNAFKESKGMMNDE
# T2 sequence (Q08722 19-139 limits assumed): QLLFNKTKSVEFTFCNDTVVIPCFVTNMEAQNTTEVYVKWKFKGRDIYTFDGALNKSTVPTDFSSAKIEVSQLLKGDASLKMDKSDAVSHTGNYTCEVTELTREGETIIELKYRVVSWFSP
binder,measurement,setting,value
"JY102 (30kmPEG-(SCACD3)SCACD47) (bispecific antibody, free thiol (Cys) in the VL-VH linker is conjugated to Azide-PEG10-Maleimide; the azide is clicked to the DBCO of 30kmPEG-Lys(SCACD3)-DBCO; free thiol (Cys) genetically inserted in the VH-VL linker is conjugated to the maleimide of 30kmPEG-Lys(maleimide)-DBCO, also called Compound 12; compound 12) scFv 1: not shown scFv 2: DIVMTQSPLSLPVTPGEPASISCRSSQSIVYSNGNTYLGWYLQKPGQSPQLLIYKVSNRFSGVPDRFSGSGSGTDFTLKISRVEAEDVGVYYCFQGSHVPYTFGQGTKLEIKGGCSGGSGGSGGSGGQVQLVQSGAEVKKPGASVKVSCKASGYTFTNYNMHWVRQAPGQRLEWMGTIYPGNDDTSYNQKFKDRVTITADTSASTAYMELSSLRSEDTAVYYCARGGYRAMDYWGQGTLVTVSS","EC50 of T cell mediated cytotoxicity (MTS assay, expanded T cells, E:T 5:1, 24 h) to ZR75-1",[1],0.111 µg/mL
same,EC50,[2],0.187 µg/mL
same,fold difference in binding (BxPC3 cells against RBCs),[3],40 fold

# Reference: patent publication US20230391867A1 (SHENZHEN ENDURING BIOTECH, published 2023)
